Data reported in article doi:10.1101/801027.

Target: T1, Hfq (Pseudomonas putida KT2440, UniProt Q88DD3 1-86)
T1 sequence: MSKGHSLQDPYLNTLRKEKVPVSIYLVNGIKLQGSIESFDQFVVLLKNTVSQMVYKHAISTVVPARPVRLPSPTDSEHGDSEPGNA
Experiment: EMSA

B1: MicC scaffold (structured_RNA)
RNA: UUUCUGUUGGGCCAUUGCAUUGCCACUGAUUUUCCAACAUAUAAAAAGACAAGCCCGAACAGUCGUCCGGGCUUUUUUU
- binding result: binds
